We go through 1 protein from article PMC7057950 (2020).

This series deals with the molecule itself.

B1: hHsp90β (protein)
chain: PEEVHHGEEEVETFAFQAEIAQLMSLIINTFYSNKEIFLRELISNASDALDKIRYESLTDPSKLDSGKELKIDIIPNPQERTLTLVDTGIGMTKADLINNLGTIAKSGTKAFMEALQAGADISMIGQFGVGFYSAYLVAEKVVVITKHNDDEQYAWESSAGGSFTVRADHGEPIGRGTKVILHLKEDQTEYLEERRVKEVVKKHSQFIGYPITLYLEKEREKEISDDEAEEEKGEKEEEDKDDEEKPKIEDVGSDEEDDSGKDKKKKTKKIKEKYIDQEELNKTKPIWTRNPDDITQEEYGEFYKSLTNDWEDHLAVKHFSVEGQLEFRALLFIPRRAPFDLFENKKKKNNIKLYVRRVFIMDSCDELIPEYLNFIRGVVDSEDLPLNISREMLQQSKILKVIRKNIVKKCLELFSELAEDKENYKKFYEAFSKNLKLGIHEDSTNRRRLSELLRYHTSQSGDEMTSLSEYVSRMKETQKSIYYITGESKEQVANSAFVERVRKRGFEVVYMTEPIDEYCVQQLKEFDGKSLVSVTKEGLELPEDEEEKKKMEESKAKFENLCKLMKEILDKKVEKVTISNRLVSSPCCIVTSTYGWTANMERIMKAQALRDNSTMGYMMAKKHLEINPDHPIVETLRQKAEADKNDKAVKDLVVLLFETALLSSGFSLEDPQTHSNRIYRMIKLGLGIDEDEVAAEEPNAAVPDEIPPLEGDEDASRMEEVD
The Kd is the free concentration of one partner at which half of the binding sites on the other are occupied at equilibrium, for simple one-to-one binding. B1: the dissociation constant (Kd) was about 9.5 nM.
